This is an account of results in patent publication US20190225705A1 (published 2019).

Positions count from the first letter of the chain named.

For test [1], the target named is baboon FXI (Papio anubis (baboon)). Description: ELISA.
Test [2] has as its target T1, human coagulation factor XI (UniProt P03951 19-625). Description: Conversion Assay.
Test [3] addresses T1, human coagulation factor XI. Description: ELISA. (An ELISA detects its analyte on a solid surface through an enzyme-linked reagent.)
For test [4] the target is unchanged. Description: ELISA. This is another data set of the same source.
The target is the same in test [5]. Put plainly: ELISA. The source holds these as a separate data set.
Test [6] has the same target. Put plainly: FXIIa induced FXI conversion assay.
Test [7] shares this target. Put plainly: ELISA. The source holds these as a separate data set.
The target is the same in test [8]. Description: ELISA. This is another data set of the same source.
For test [9] the target is unchanged. Description: ELISA. This is another data set of the same source.

B1: 1A6 (antibody, V domains shown)
VH: QVTLKESGPGILKPSQTLSLTCSFSGFSLSTSGMGVGWIRQPSGKGLEWLAHIWWDDDKYYNPSLKSQLTISKDTSRNQVFLKITSVDAADTATYYCARKRSSVVAHYYAMDYWGQGTSVTVSS
VL: DIVLTQSPASLAVSLGQRATISCKASQSVDYDGDSYLNWYQQKPGQPPKLLIYAASNLESGIPARFSGSGSGTDFTLNIHPVEEEDAATYYCQQSNGDPWTFGGGTKLEIK
One may read the EC50 as the concentration that produces a half-maximal response. Higher therefore signals weaker potency. As for B1, the midpoint of the response in test [1], the EC50, lay at 160 pM.

B2: murine anti-FXI antibody 1A6 (antibody, V domains shown)
VH: B1 VH
VL: B1 VL
In the case of B2, the EC50 turned out to be 500 pM in [2], 154 pM in [3] and 150 pM in [4].

B3: humanized and germlined anti-FXI antibody TPP-3583 (antibody, V domains shown)
VH: EVTLRESGPALVKPTQTLTLTCTFSGFSLSTSGMGVGWIRQPPGKALEWLAHIDWDDDKYYSPSLKSRLTISKDTSKNQVVLTMTNMDPVDTATYYCARIRSSVYAHYYGMDYWGQGTTVTVSS
VL: DIVMTQSPDSLAVSLGERATISCKASQSVLYSGDNYLNWYQQKPGQPPKLLIYAASTLESGIPDRFSGSGSGTDFTLTISSLQAEDVAVYYCQQYNGDPWTFGGGTKVEIKR
The IC50 is the concentration needed to halve the response being measured. Higher therefore signals a need for much substance. On to B3, for which the half-maximal effective concentration (EC50) in [5] turned out to be 219 pM; in test [2], 600 pM; in test [4] it was 200 pM. The same molecule returned an IC50 in [6] of 598 pM.

B4: TPP-3290 (antibody, V domains shown)
VH: B3 VH with G37S, P63T
VL: B3 VL with D98T
On to B4, for which a half-maximal effect in test [1] (EC50) was put at 140 pM.

B5: TPP-3583 (antibody, V domains shown)
VH: B3 VH
VL: B3 VL
Turning to B5, the EC50 in test [1] was found to be 130 pM.

B6: humanized and germlined anti-FXI antibody TPP-3577 (antibody, V domains shown)
VH: B3 VH with G35C, P63T, Y113V
VL: B3 VL with A25S
In the case of B6, the values for the EC50 in [2], in [7] and in test [4] were 400 pM, 119 pM and 190 pM, respectively.

B7: humanized and germlined anti-FXI antibody TPP-3238 (antibody, V domains shown)
VH: B3 VH with G37S, P63T, A106Y, H107Y, Y113V
VL: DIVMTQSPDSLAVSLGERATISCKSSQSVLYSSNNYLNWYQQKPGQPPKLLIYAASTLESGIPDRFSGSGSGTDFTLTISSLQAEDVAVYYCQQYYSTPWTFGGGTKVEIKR
For the molecule B7, the EC50 in test [8] was found to be 165 pM; in test [2], 600 pM; in [4], 160 pM.

B8: humanized and germlined anti-FXI antibody TPP-3290 (antibody, V domains shown)
VH: B3 VH with G37S, P63T
VL: B3 VL with D98T
Turning to B8, the EC50 in test [2] came to 400 pM; in test [9], 168 pM; in test [4] it was 170 pM.

B9: TPP-3238 (antibody, V domains shown)
VH: B3 VH with G37S, P63T, A106Y, H107Y, Y113V
VL: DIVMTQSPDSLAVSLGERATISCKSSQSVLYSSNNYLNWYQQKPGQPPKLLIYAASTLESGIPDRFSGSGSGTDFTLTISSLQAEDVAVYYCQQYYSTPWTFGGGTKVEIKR
On to B9, for which it took 280 pM to reach a half-maximal effect in test [1] (EC50). This counts as sub-nanomolar.

B10: TPP-3577 (antibody, V domains shown)
VH: B3 VH with G35C, P63T, Y113V
VL: B3 VL with A25S
For B10, in test [1], it took 160 pM to reach a half-maximal effect (EC50).
